From the supplement of paper PMC10201428
± gives the standard deviation of the averaged measurements.

How the values were obtained:
[1] = tested on: VchCAST RNA-guided transposition machinery (E. coli BL21(DE3) host, lacZ target); test: relative integration efficiency (T-RL orientation) vs wild-type transposon end (log2 (normalized fold change)); transposon end mutated: left end; higher = more efficient transposition
Summary of the method: (§1)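 Relative integration efficiency is a fold change of output over input barcode abundance, normalised to reference barcodes and log-transformed. Input plasmids and genomic integration junctions were PCR-amplified and Illumina-sequenced from E. coli BL21(DE3) co-transformed with a T7-driven effector plasmid and pUC57 donor pools of 1549 left-end or 1849 right-end transposon variants. Plating was done with 0.1 mM IPTG at 37°C for 18 h, with two biological output replicates and four reference barcodes.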

[2] = tested on: VchCAST RNA-guided transposition machinery (E. coli BL21(DE3) host, lacZ target); test: relative integration efficiency (T-LR orientation) vs wild-type transposon end (log2 (normalized fold change)); transposon end mutated: left end; higher = more efficient transposition
Summary of the method: as §1

| Sequence | relative integration efficiency (log2) [1] | relative integration efficiency (log2) [2] |
| --- | --- | --- |
| AATGTTGTTGATGCAACCATAAAGTGATATTTACGAATCAATTAAAATCATAGGCTTAATCGAAAAACAACCATATATTGATATCTCATAAAACAACCATAAGTTGATATTTTGGTGAAAAGGATATTCCAACCTTCATAGTTTAGTAAGAA | 0.639 ± 0.032 | 0.612 ± 0.84 |
| AATGTTGTTGATGCAACCATAAAGTGATATTTACGAGCCGAGCTCGTGCCCGGTGCCGCGGCAGACGCAACCATATATTGATATCTCACAAAACAACCATAAGTTGATATTTTTGTGAATCGAGTATTTCAGCAAAACTACTGCAGTAAGAA | -2.33 ± 0.72 | -2.47 ± 1.1 |
| AATGTTGTTGATGCAACCATAAAGTGATATTTACGCACTCCGTAGCCATCTGGGGCACCGGACGCTCCAACCATATATTGATATCTCACAAAACAACCATAAGTTGATATTTTTGTGAATCGAGTATTTCAGCAAAACTACTGCAGTAAGAA | -2.64 ± 0.79 | -3.42 ± 0.88 |
| AATGTTGTTGATGCAACCATAAAGTGATATTTACGCCGGCGGGCGCCGACTACCAGGCCAACACCCCACCAACGCGCGGTCGCGAGACACCCCACCAACGCCTGGTCGCGGGGGTGTCCGATCTGATTTCAGCAAAACTACTGCAGTAAGAA | -6.9 ± 0.36 | -6.15 ± 3.6 |
| AATGTTGTTGATGCAACCATAAAGTGATATTTACGCCGGCGGGCGCCGACTACCAGGCCAACACCCCCAACCATATATTGATATCTCACAAAACAACCATAAGTTGATATTTTTGTGAATCGAGTATTTCAGCAAAACTACTGCAGTAAGAA | -3.42 ± 1.2 | -2.85 ± 1.2 |
| AATGTTGTTGATGCAACCATAAAGTGATATTTACGTCTGTACAGCGCACAGAAGCTGGGAACTCGGCCAACCATATATTGATATCTCACAAAACAACCATAAGTTGATATTTTTGTGAATCGAGTATTTCAGCAAAACTACTGCAGTAAGAA | -3.56 ± 1.1 | -3.36 ± 2.2 |
| AATGTTGTTGATGCAACCATAAAGTGATATTTACTAGGATTCATGTCAACGTGCAAGCTTAGTTCGACAACCATATATTGATATCTCACAAAACAACCATAAGTTGATATTTTTGTGAATCGAGTATTTCAGCAAAACTACTGCAGTAAGAA | -5.16 ± 1 | -5.46 ± 2.5 |
| AATGTTGTTGATGCAACCATAAAGTGATATTTACTTAAGCGAGTCTGTCCTTTCTGACTGTCGATCCCAACCATATATTGATATCTCACAAAACAACCATAAGTTGATATTTTTGTGAATCGAGTATTTCAGCAAAACTACTGCAGTAAGAA | -3.4 ± 1.1 | -3.45 ± 1.6 |
| AATGTTGTTGATGCAACCATAAAGTGATATTTAGACGTCCTTAACTCTGGCAGGGAGTTCAAGGGACCAACCATATATTGATATCTCACAAAACAACCATAAGTTGATATTTTTGTGAATCGAGTATTTCAGCAAAACTACTGCAGTAAGAA | -2.69 ± 1.2 | -3.47 ± 2.7 |
| AATGTTGTTGATGCAACCATAAAGTGATATTTAGCCGCTTCCGGGGCTGCCCTCTAAGCGCGAGCGCCAACCATATATTGATATCTCACAAAACAACCATAAGTTGATATTTTTGTGAATCGAGTATTTCAGCAAAACTACTGCAGTAAGAA | -3.92 ± 1.2 | -0.565 ± 0.97 |
| AATGTTGTTGATGCAACCATAAAGTGATATTTAGGCAGTGAGCGCAACGCAATTCTTAACCACAAAACAACCATATATTGATATCTCACAAAACAACCATAAGTTGATATTTTTGTGAATCGAGTATTTCAGCAAAACTACTGCAGTAAGAA | -4.22 ± 1.2 | -3.58 ± 0.71 |
| AATGTTGTTGATGCAACCATAAAGTGATATTTATAATTATTTATAATCAGCAACTTAACCACAAAACAACCATATATTGATATCTCACAAAACAACCATAAGTTGATATTTTTGTGAATCGAGTATTTCAGCAAAACTACTGCAGTAAGAAA | -0.877 ± 0.61 | -0.645 ± 0.95 |
| AATGTTGTTGATGCAACCATAAAGTGATATTTATACCGTTCGTATAATGTATGCTATACCAAGTTATCAACCATATATTGATATCTCACAAAACAACCATAAGTTGATATTTTTGTGAATCGAGTATTTCAGCAAAACTACTGCAGTAAGAA | -4.32 ± 1.2 | -3.21 ± 0.88 |
